Experimental data as given in US20070248604A1 (Genentech, published 2007).

What was measured:
[1] = biological target: T1, FGF19 protein (human, UniProt O95750 25-216, limits assumed); test: solid phase receptor binding assay: FGF19 binding to captured FGFR4-Fc with antibody present; solid phase receptor binding assay, blocking of FGF19 binding to FGFR4
T1 construct: 125I-labelled for the Scatchard analysis. 'Human' is stated for hu FGF-19-His and for the anti-human FGF19 antibodies, not in these assay descriptions; also called Fibroblast growth factor 19; [125I]FGF19
Method: (§1) Maxisorb 96 well plates were coated overnight at 4° C. with 50 μl of 2 μg/ml anti-human immunoglobulin Fcγ fragment specific antibody (Jackson Immunoresearch) and used to capture 1 μg/ml FGFR-Fc chimeric proteins (R & D Systems).

[2] = biological target: T2, hu FGF-19-His (human, UniProt O95750 25-216, limits assumed); test: ELISA, FGF19-His captured on nickel plates, HRP anti-mouse IgG detection; ELISA binding EC50
T2 construct: Analyte in SPR; Construct limits and tag not described; not shown: His tag
Source text: (§2) Non-specific binding sites of HisGrab Nickel coated plates (Pierce) were saturated with PBS/3% BSA. […] The bound antibodies were detected using a HRP conjugated anti-mouse IgG (Jackson Immunoresearch) and the TMB peroxydase colorigenic substrate (KPL).

[3] = biological target: T2, hu FGF-19-His; test: SPR, BIAcore-3000, antibody coupled to CM5 chip (~500 RU), FGF19-His injected 0.7-500 nM, 25 C, 1:1 Langmuir model
Method: Briefly, carboxymethylated dextran biosensor chips (CM5, BIAcore Inc.) were activated with N-ethyl-N′-(3-dimethylaminopropyl)-carbodiimide hydrochloride (EDC) and N-hydroxysuccinimide (NHS) according to the supplier's instructions. […] Next, 1M ethanolamine was injected to block unreacted groups. […] Association rates (kₒₙ) and dissociation rates (koff) were calculated using a simple one-to-one Langmuir binding model (BIAcore Evaluation Software version 3.2).

[4] = biological target: T2, hu FGF-19-His; test: solid phase antibody binding assay: FGF19-His captured on nickel coated plates, HRP anti-mouse IgG
Source text: as §2

[5] = biological target: T1, FGF19 protein; test: solid phase receptor binding assay, blocking: FGF19 binding to captured FGFR4-Fc with antibody titrated
Method: as §1

T2 sequence (O95750 25-216 limits assumed): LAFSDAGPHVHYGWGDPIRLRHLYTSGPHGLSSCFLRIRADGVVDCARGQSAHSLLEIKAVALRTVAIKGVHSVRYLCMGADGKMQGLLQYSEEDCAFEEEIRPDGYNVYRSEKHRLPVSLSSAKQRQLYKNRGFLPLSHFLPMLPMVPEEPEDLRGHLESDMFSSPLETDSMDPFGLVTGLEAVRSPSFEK
T1 sequence (O95750 25-216 limits assumed): as above

IC50 [1]: 3 nM | EC50 [2]: 0.04 nM | Kd [3]: < 0.009 nM | EC50 (read off the curve) [4]: ~0.03 µg/mL | IC50 (read off the curve) [5]: ~0.5 µg/mL
B1: mouse anti-human FGF19 monoclonal antibody 1A6 (antibody, V domains shown)
VH: QVQLKQSGPGLVQPSQSLSITCTVSGFSLTTYGVHWVRQSPGKGLEWLGVIWPGGGTDYNAAFISRLSITKDNSKSQVFFKMNSLLANDTAIYFCVRKEYANLYAMDYWGQGTLLTVSA
VL: DIKMTQSPSSMYASLGERVTIPCKASQDINSFLSWFQQKPGKSPKTLIYRANRLVDGVPSRFSGSGSGQDYSLTISSLEYEDMGIYYCLQYDEFPLTFGAGTKVEIKR
notes: Mouse hybridoma monoclonal antibody, purified from ascites on protein A-agarose; also called anti-FGF19 mab 1A6; anti-FGF19 Mab 1A6
